Test results reported in patent publication US20070287670A1 (Bristol-Myers Squibb, published 2007).
One block for each binder: values may come before it. Where no end group is shown, it is not given here. [ ]: non-standard residue; d: D form. Bip = N[C@@H](Cc1ccc(-c2ccccc2)cc1)C(=O)O

Biological target: Full-length human glucagon-like peptide 1 receptor (human, UniProt P43220 24-463)
Experiment: cell-based or functional assay

cAMP production (EC50), cAMP cell-based assay in CHO-GLP-1R-19 cells: > 1 millimolar
B1: peptide corresponding to the N-terminal 1-9 sequence of GLP-1, His-Ala-Glu-Gly-Thr-Phe-Thr-Ser-Asp-NH2 (peptide)
peptide: HAEGTFTSD-NH2

cAMP production (EC50), cAMP cell-based assay in CHO-GLP-1R-19 cells: 1100 nM
B2: GLP-1 11-mer peptide analog His-Ala-Glu-Gly-Thr-Phe-Thr-Ser-Asp-Bip-Bip-NH2 (peptide)
peptide: HAEGTFTSD[Bip][Bip]-NH2
modifications: N-terminus assumed
SMILES: C[C@H](NC(=O)[C@@H](N)Cc1c[nH]cn1)C(=O)N[C@@H](CCC(=O)O)C(=O)NCC(=O)N[C@H](C(=O)N[C@@H](Cc1ccccc1)C(=O)N[C@H](C(=O)N[C@@H](CO)C(=O)N[C@@H](CC(=O)O)C(=O)N[C@@H](Cc1ccc(-c2ccccc2)cc1)C(=O)N[C@@H](Cc1ccc(-c2ccccc2)cc1)C(N)=O)[C@@H](C)O)[C@@H](C)O
